Tests used:
MTX-cIBL conjugate = tested on: T1, MTX-cIBL conjugate
T1 sequence: QTSVSPSKVI

[1] = tested on: T2, MTX-cIBR conjugate (methotrexate-cyclo-Leu Pro Arg Gly Gly Ser Val Leu Val Thr)
T2 sequence: LPRGGSVLVT

dihydrofolate reductase enzyme (DHFR)
Km relative to MTX (MTX-cIBL conjugate): approximately 4 and 15 fold times less than that of MTX, respectively
Km relative to MTX [1]: approximately 4 and 15 fold times less than that of MTX, respectively
